The target in assay [1] is T1, TGFβ2 protein (GenScript Z03429) (human, UniProt P61812 303-414).
T1 construct: also called human TGF-β2
T1 sequence (looked up): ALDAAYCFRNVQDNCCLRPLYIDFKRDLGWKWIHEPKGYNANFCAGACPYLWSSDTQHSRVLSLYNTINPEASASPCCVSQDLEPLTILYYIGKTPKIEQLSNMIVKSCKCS
Briefly: ELISA; plate coated with human TGF-β2; antibody titrated; HRP anti-human Fc. As for the experimental part: (§1) A microplate was coated with 2 μL/well of the human TGF-β1/2/3 protein solution, respectively, at 4° C. overnight; the supernatant was discarded, 300 μL of a blocking solution (PBS containing 3% BSA) was added to each well, and the plate was blocked at 37° C. for 2 h; the antibodies were gradiently diluted, and the diluent was PBS containing 1% BSA. For example, the initial concentration of the antibody dilution was 500 nM, and diluted 10-fold to obtain 8 concentration gradients. The diluted antibody was added to the well of the microplate at 200 μL per well, the plate was left to stand and incubated at room temperature for 2 h, and the supernatant was discarded; the plate was washed for 3 times with 200 μL/well PBST (PBS containing 0.1% Tween 20); a diluted HRP-labeled anti-human Fc secondary antibody (SIGMA, A8667) was added, the secondary antibody was used after a 1:20000 dilution, the diluent was PBS containing 1% BSA, the volume was 100 μL/well, and the plate was incubated at room temperature for 1 h; the plate was washed for 5 times with 200 μL/well PBST; a TMB chromogenic solution (BD, 55214) was added at 100 μL/well for color development at 37° C. for 8 min. 2 M HCl stop solution was added at 100 μL/well. After the addition of the stop solution, the 450 nm values were read using a microplate reader within 30 min. Data were analyzed using GraphPad Prism 6.0 software and avidity fitting was performed to give EC50 values.
Background: An ELISA detects its analyte on a solid surface through an enzyme-linked reagent.

The target in assay [2] is T2, TGFβ3 protein (GenScript Z03430) (human, UniProt P10600 301-412).
T2 construct: also called human TGF-β3
T2 sequence (looked up): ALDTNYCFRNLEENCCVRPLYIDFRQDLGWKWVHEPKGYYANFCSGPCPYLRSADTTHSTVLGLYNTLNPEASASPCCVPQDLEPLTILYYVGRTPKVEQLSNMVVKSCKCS
Kind of assay: ELISA; plate coated with human TGF-β3; antibody titrated; HRP anti-human Fc. As for the experimental part:
as §1

Assay [3] concerns the target T3, TGFβ1 protein (GenScript Z03411) (human, UniProt P01137 279-390).
T3 construct: also called human TGF-β1; TGFβ1 antigen
Briefly: ELISA; plate coated with human TGF-β1; antibody titrated; HRP anti-human Fc. As for the experimental part:
as §1

T3 sequence (P01137 279-390 limits assumed, one chain of several): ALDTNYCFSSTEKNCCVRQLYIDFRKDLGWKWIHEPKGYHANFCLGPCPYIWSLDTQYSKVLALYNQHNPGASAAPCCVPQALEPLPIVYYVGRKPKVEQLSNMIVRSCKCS

B1: B1C5 anti-TGFβ single domain heavy-chain antibody (variable region, linker peptide, human IgG1 heavy chain constant region) (Fc fusion)
heavy: EVQLVESGGGEVRPGGSLRLSCVVSGFTKDYGAIGWFRQAPGQEREGLGCIARKDGDTWSADSVKGRFTISRDNVRNTVYLQMNALKPEDRGVYYCAGDPSALYGCSDRSSEYQYWGQGTQVTVSS
notes: not shown: linker peptide (GGGGS)n, n=1, 2 or 3; human IgG1 heavy chain constant region, GenBank No. AK303185.1
What is called EC50 is the concentration that produces a half-maximal response. Read a low EC50 as a more potent agent. In the case of B1, the EC50 in assay [1] was found to be 1.85 nM; in assay [2], 0.546 nM; in assay [3], 0.442 nM.

B2: B1B7 anti-TGFβ single domain heavy-chain antibody (variable region, linker peptide, human IgG1 heavy chain constant region) (Fc fusion)
heavy: QVQLVESGGGLVQPGGSLTLSCTASGSMFSFYTMGWYRQATGKQRELVAGISLGGETTYAPSVKDRFTISRDNAKNTVYLQMNSLKPEDTALYNCNAYWGEDYWGQGTQVTVSS
notes: as for B1
Regarding B2, the EC50 was 148 nM in assay [1], 162 nM in assay [2] and 7.01 nM in assay [3].

B3: B3D6 anti-TGFβ single domain heavy-chain antibody (variable region, linker peptide, human IgG1 heavy chain constant region) (Fc fusion)
heavy: EVQLVESGGGLVQAGGSLRLSCAASGRSFSSLAVGWFRQPPGKKREIVAAVNWSGTSTYYPDSVKGRFSISRDNTKNTVYLQMNSLKPEDTAVYYCAADPDLRWLKLWGYEYWGQGTQVTVSS
notes: as for B1
Take B3: the values for the EC50 in assay [1], in assay [2] and in assay [3] were 0.939 nM, 1.22 nM and 0.747 nM, respectively.

B4: B2G8 anti-TGFβ single domain heavy-chain antibody (variable region, linker peptide, human IgG1 heavy chain constant region) (Fc fusion)
heavy: QVQLVESGGGLVQPGGSLRLSCAASGISFSYYDMGWFRQAPGKQRELVAIVTSGGRTNYADSVKGRFTISRETAKSTMYLQMNSLKSEDTGVYYCNAHWIVTTDYWGQGTQVTVAS
notes: as for B1
On to B4, for which the EC50 in assay [1] came to 1.73 nM; in assay [2], 1.47 nM; in assay [3] it was 1.72 nM.

B5: B2C9 anti-TGFβ single domain heavy-chain antibody (variable region, linker peptide, human IgG1 heavy chain constant region) (Fc fusion)
heavy: EVQVVESGGGLVQPGGSLRLSCAASASVFSWSVMGWFRQAPGKQRELVAISSGDRETYADSVKGRFTISRDNAKNTVYLQMDTLKPEDTAVYFCNAYVPVGESRGDYWGQGTQVTVSS
notes: as for B1
Take B5: the results for the EC50 in assay [1], in assay [2] and in assay [3] were 1.42 nM, 1.21 nM and 4.83 nM, respectively.

B6: B2A9 anti-TGFβ single domain heavy-chain antibody (variable region, linker peptide, human IgG1 heavy chain constant region) (Fc fusion)
heavy: QLQLVESGGGLVQPGGSLRLSCTASGSTFEIYPIYAMAWFRQTPGKQRELVALTTDVKTNYADSVKGRFTISRDNAKNTVYLQMNMLQPEDTAVYVCNVGVVRGGLQNYWGQGTQVTVSS
notes: as for B1
As for B6, the values for the concentration giving a half-maximal response (EC50) in assay [1], in assay [2] and in assay [3] were 1.25 nM, 1.46 nM and 5.43 nM, respectively.

B7: B2C2 anti-TGFβ single domain heavy-chain antibody (variable region, linker peptide, human IgG1 heavy chain constant region) (Fc fusion)
heavy: QLQLVESGGGLVQPGGSLRLSCAGSGIAFSRVTMAWSRQAPGKQRELVALITDGNRSAYVDSVKGRFTISRDNTKKTMSLQMNDLKPEDTAVYYCVATDWVPTRRDYWGQGTQVTVSS
notes: as for B1
On to B7, for which the results for the half-maximal effective concentration (EC50) in assay [1], in assay [2] and in assay [3] were 1.42 nM, 1.43 nM and 1.25 nM, respectively.

B8: B1F8 anti-TGFβ single domain heavy-chain antibody (variable region, linker peptide, human IgG1 heavy chain constant region) (Fc fusion)
heavy: QVQLVESGGGLVQPGGSLRLSCAASGSIFGVFYMGWFRQAPGKQREMVAISTDDRTSYVDSVKGRFTISRDNAKNTLALQMNSLKPEDTAVYFCNLNQLGTDYWGPGTQVTVSS
notes: also called BIF8; not shown: linker peptide (GGGGS)n, n=1, 2 or 3; human IgG1 heavy chain constant region, GenBank No. AK303185.1
For the molecule B8, the values for the EC50 in assay [1], in assay [2] and in assay [3] were 1.42 nM, 1.29 nM and 0.785 nM, respectively.

B9: B3F3 anti-TGFβ single domain heavy-chain antibody (variable region, linker peptide, human IgG1 heavy chain constant region) (Fc fusion)
heavy: QVQLVESGGGLVQPGESLRLSCTASGSIFGVFYMGWFRQAPGKQRDMVAISTDDRTSYADSVKGRFTISRDNAKNTLALQMNSLKPEDTAVYFCNLNQLGTDYWGPGTQVTVSS
notes: as for B1
B9: the EC50 turned out to be 1.62 nM in assay [1], 1.46 nM in assay [2] and 1.48 nM in assay [3].

B10: B1B8 anti-TGFβ single domain heavy-chain antibody (variable region, linker peptide, human IgG1 heavy chain constant region) (Fc fusion)
heavy: EVQVVESGGGLVQPGGSLTLSCVASGFAFSFTPMRWVRQAPGKGLEWVSSISIRGDTTDYADSVKGRFTISRDNAKNTLYLQMNSLKPEDTAVYYCSRGSSISTSTERTQGTQVTVSS
notes: as for B1
On to B10, for which the EC50 is 0.464 nM in assay [1], 0.817 nM in assay [2] and 0.533 nM in assay [3].

The record behind these values is patent US20250026820A1 (WUHAN YZY BIOPHARMA, published 2025).
